Source: patent US20180044433A1 (FONDAZIONE IRCCS INSTITUTO NAZIONALE DEI TUMORI, published 2018)

How the values were obtained:
[1] = biological target: T1, JMJD6 peptide 1 (human); assay: ELISA on plated peptides (1 ug/well)
T1 construct: also called pool A
T1 peptide: MNHKSKKRIREAKR
Protocol: (§1) A peptide library was synthesized (Primm), consisting of 57 peptides with 14 amino acids each and whose sequences overlap for 7 amino acids. In order to assay the interaction with collagen, the peptides, were sown in a plate (1 ug/well) and incubated for the whole night at 4° C. […] The reaction was developed and read at 450 nm as indicated above. As control two unrelated peptides were used and the reactivity of the antibodies on the peptides in absence of collagen was evaluated.

[2] = biological target: T2, JMJD6 peptide 2 (human); assay: ELISA on plated peptides (1 ug/well)
T2 construct: also called pool A
T2 peptide: RIREAKRSARPELK
Protocol: as §1

[3] = biological target: T3, JMJD6 peptide 13 (human); assay: ELISA on plated peptides (1 ug/well)
T3 construct: also called pool B
T3 peptide: WTLERLKRKYRNQK
Protocol: as §1

[4] = biological target: T4, JMJD6 peptide 14 (human); assay: ELISA on plated peptides (1 ug/well)
T4 construct: also called pool B
T4 peptide: RKYRNQKFKCGEDN
Protocol: as §1

[5] = biological target: T5, JMJD6 peptide 16 (human); assay: ELISA on plated peptides (1 ug/well)
T5 construct: also called pool C
T5 peptide: DGYSVKMKMKYYIE
Protocol: as §1

[6] = biological target: T6, JMJD6 peptide 17 (human); assay: ELISA on plated peptides (1 ug/well)
T6 construct: also called pool C
T6 peptide: KMKYYIEYMESTRD
Protocol: as §1

[7] = biological target: T7, JMJD6 peptide 20 (human); assay: ELISA on plated peptides (1 ug/well)
T7 construct: also called pool D
T7 peptide: DSSYGEHPKRRKLL
Protocol: as §1

[8] = biological target: T8, JMJD6 peptide 21 (human); assay: ELISA on plated peptides (1 ug/well)
T8 construct: also called pool D
T8 peptide: PKRRKLLEDYKVPK
Protocol: as §1

[9] = biological target: T9, JMJD6 peptide 24 (human); assay: ELISA on plated peptides (1 ug/well)
T9 construct: also called pool E
T9 peptide: QYAGEKRRPPYRWF
Protocol: as §1

[10] = biological target: T10, JMJD6 peptide 25 (human); assay: ELISA on plated peptides (1 ug/well)
T10 construct: also called pool E
T10 peptide: RPPYRWFVMGPPRS
Protocol: as §1

[11] = biological target: T11, JMJD6 peptide 29 (human); assay: ELISA on plated peptides (1 ug/well)
T11 construct: also called pool F
T11 peptide: NALVQGHKRWCLFP
Protocol: as §1

[12] = biological target: T12, JMJD6 peptide 30 (human); assay: ELISA on plated peptides (1 ug/well)
T12 construct: also called pool F
T12 peptide: KRWCLFPTSTPREL
Protocol: as §1

[13] = biological target: T13, JMJD6 peptide 38 (human); assay: ELISA on plated peptides (1 ug/well)
T13 construct: also called pool G
T13 peptide: KPGETVFVPGGWWH
Protocol: as §1

[14] = biological target: T14, JMJD6 peptide 39 (human); assay: ELISA on plated peptides (1 ug/well)
T14 construct: also called pool G
T14 peptide: VPGGWWHVVLNLDT
Protocol: as §1

[15] = biological target: T15, JMJD6 peptide 40 (human); assay: ELISA on plated peptides (1 ug/well)
T15 construct: also called pool G
T15 peptide: VVLNLDTTIAITQN
Protocol: as §1

[16] = biological target: T16, JMJD6 peptide 41 (human); assay: ELISA on plated peptides (1 ug/well)
T16 construct: also called pool G
T16 peptide: TIAITQNFASSTNF
Protocol: as §1

[17] = biological target: T17, JMJD6 peptide 43 (human); assay: ELISA on plated peptides (1 ug/well)
T17 construct: also called pool H
T17 peptide: PVVWHKTVRGRPKL
Protocol: as §1

[18] = biological target: T18, JMJD6 peptide 44 (human); assay: ELISA on plated peptides (1 ug/well)
T18 construct: also called pool H
T18 peptide: VRGRPKLSRKWYRI
Protocol: as §1

[19] = biological target: T19, JMJD6 peptide 45 (human); assay: ELISA on plated peptides (1 ug/well)
T19 construct: also called pool H
T19 peptide: SRKWYRILKQEHPE
Protocol: as §1

[20] = biological target: T20, JMJD6 peptide 53 (human); assay: ELISA on plated peptides (1 ug/well)
T20 construct: also called pool I
T20 peptide: SEGDGTVHRRKKRR
Protocol: as §1

[21] = biological target: T21, JMJD6 peptide 54 (human); assay: ELISA on plated peptides (1 ug/well)
T21 construct: also called pool I
T21 peptide: HRRKKRRTCSMVGN
Protocol: as §1

[22] = biological target: T22, JMJD6 5′/FLAG (amino acids 1-305 with C-terminal FLAG) (human, UniProt Q6NYC1 1-305); assay: immunofluorescence on transfected MeWo cells
T22 construct: range 1-305; Expressed in transfected MeWo cells and tested by immunofluorescence; also called JM 5′/FLAG

Measured: binding result

B1: monoclonal antibody P4E11 (antibody, V domains shown, not shown: a dimerising Fc or GST)
VH: QVQLKQSGPGLVQPSQSLSITCTVSGFSLSSYGVHWVRQSPGKGLEWLGVIWRSGNTDYNAVFMSRLSITKDDSKSQVFFKMNSLQADDTAIYYCAKNFRYDVGSWFAYWGQGTLVTVSA
VL: NIMMTQSPSSLAVSAGEKVTMNCKSSQSILYSSNHKNYLAWYQQKPGQSPKLLIYWASTRESGVPNRFTGSGSGTDFTLTISSVQSEDLAVYYCHQYLSSYTFGGGTKLEIKR
no binding: [1] | [2] | [3] | [4] | [5] | [6] | [7] | [8] | [9] | [10] | [11] | [12] | [13] | [14] | [15] | [16] | [17] | [18] | [19] | [20] | [21] | [22]
